Assay results taken from the supplement of paper PMC9112550, “Optimization of the antimicrobial peptide Bac7 by deep mutational scanning” (BMC Biology, 2022).

test system: Escherichia coli TOP10; assay: shrunken log2 fold change of peptide-encoding DNA abundance (4.5 h post-induction vs induction); higher = less antimicrobial activity (less host growth inhibition); details: time post-induction: 4.5 h; library: site-saturation at positions 5, 18, 19, 20
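Note: peptides expressed intracellularly from a pBAD plasmid library in pooled LB shake-flask culture, induced with 0.3% L-arabinose, DNA abundance read by NGS, three biological replicates, DESeq2 with apeglm shrinkage.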

Row | Sequence | shrunken log2 fold change
1 | RRIRHRPPRLPRPRPRPEHSPRP | -0.179
2 | RRIRHRPPRLPRPRPRPEIMPRP | -0.023
3 | RRIRHRPPRLPRPRPRPEIQPRP | -0.102
4 | RRIRHRPPRLPRPRPRPEITPRP | -0.0206
5 | RRIRHRPPRLPRPRPRPEIYPRP | -0.413
6 | RRIRHRPPRLPRPRPRPEKHPRP | 0.0511
7 | RRIRHRPPRLPRPRPRPEMCPRP | -0.206
8 | RRIRHRPPRLPRPRPRPEMGPRP | 0.00396
9 | RRIRHRPPRLPRPRPRPEPNPRP | 0.0235
10 | RRIRHRPPRLPRPRPRPEQLPRP | -0.0602
11 | RRIRHRPPRLPRPRPRPERAPRP | 0.305
12 | RRIRHRPPRLPRPRPRPERCPRP | -0.078
13 | RRIRHRPPRLPRPRPRPERLPRP | 0.0977
14 | RRIRHRPPRLPRPRPRPERVPRP | 0.228
15 | RRIRHRPPRLPRPRPRPETGPRP | -0.0213
16 | RRIRHRPPRLPRPRPRPEVDPRP | -0.00884
17 | RRIRHRPPRLPRPRPRPEWMPRP | 0.188
18 | RRIRHRPPRLPRPRPRPEYFPRP | -0.0339
19 | RRIRHRPPRLPRPRPRPFCHPRP | -0.308
20 | RRIRHRPPRLPRPRPRPFCPPRP | -0.772
21 | RRIRHRPPRLPRPRPRPFDSPRP | -0.00149
22 | RRIRHRPPRLPRPRPRPFERPRP | -0.128
23 | RRIRHRPPRLPRPRPRPFFPPRP | -0.285
24 | RRIRHRPPRLPRPRPRPFFVPRP | -0.224
25 | RRIRHRPPRLPRPRPRPFGHPRP | -0.233

Row | Sequence | shrunken log2 fold change
26 | RRIRHRPPRLPRPRPRPFGKPRP | 0.0294
27 | RRIRHRPPRLPRPRPRPFGMPRP | -0.0621
28 | RRIRHRPPRLPRPRPRPFGPPRP | -0.247
29 | RRIRHRPPRLPRPRPRPFHFPRP | -0.403
30 | RRIRHRPPRLPRPRPRPFLWPRP | -0.353
31 | RRIRHRPPRLPRPRPRPFMCPRP | -0.57
32 | RRIRHRPPRLPRPRPRPFMWPRP | -0.137
33 | RRIRHRPPRLPRPRPRPFNQPRP | -0.0213
34 | RRIRHRPPRLPRPRPRPFPFPRP | -0.758
35 | RRIRHRPPRLPRPRPRPFRKPRP | 0.00884
36 | RRIRHRPPRLPRPRPRPFVIPRP | -0.331
37 | RRIRHRPPRLPRPRPRPFVLPRP | -0.0634
38 | RRIRHRPPRLPRPRPRPFWFPRP | -0.382
39 | RRIRHRPPRLPRPRPRPFWKPRP | -0.0724
40 | RRIRHRPPRLPRPRPRPFYRPRP | -0.0975
41 | RRIRHRPPRLPRPRPRPGADPRP | 0.255
42 | RRIRHRPPRLPRPRPRPGATPRP | 0.0387
43 | RRIRHRPPRLPRPRPRPGCRPRP | 0.704
44 | RRIRHRPPRLPRPRPRPGDHPRP | -0.00776
45 | RRIRHRPPRLPRPRPRPGECPRP | -0.377
46 | RRIRHRPPRLPRPRPRPGFHPRP | -0.323
47 | RRIRHRPPRLPRPRPRPGGDPRP | 0.0994
48 | RRIRHRPPRLPRPRPRPGIMPRP | -0.566
49 | RRIRHRPPRLPRPRPRPGKDPRP | -0.0922
50 | RRIRHRPPRLPRPRPRPGLAPRP | 0.366

Row | Sequence | shrunken log2 fold change
51 | RRIRHRPPRLPRPRPRPGLHPRP | -0.308
52 | RRIRHRPPRLPRPRPRPGMLPRP | -0.0926
53 | RRIRHRPPRLPRPRPRPGNSPRP | 0.0912
54 | RRIRHRPPRLPRPRPRPGQQPRP | -0.028
55 | RRIRHRPPRLPRPRPRPGQYPRP | -0.0767
56 | RRIRHRPPRLPRPRPRPGRVPRP | -0.129
57 | RRIRHRPPRLPRPRPRPGSYPRP | -0.287
58 | RRIRHRPPRLPRPRPRPGVVPRP | -0.227
59 | RRIRHRPPRLPRPRPRPGWPPRP | 0.424
60 | RRIRHRPPRLPRPRPRPGYDPRP | 0.381
61 | RRIRHRPPRLPRPRPRPGYPPRP | -0.0459
62 | RRIRHRPPRLPRPRPRPHALPRP | 0.0244
63 | RRIRHRPPRLPRPRPRPHDHPRP | -1.24
64 | RRIRHRPPRLPRPRPRPHFEPRP | 0.0715
65 | RRIRHRPPRLPRPRPRPHFHPRP | -0.648
66 | RRIRHRPPRLPRPRPRPHFSPRP | 0.0854
67 | RRIRHRPPRLPRPRPRPHGTPRP | -0.0524
68 | RRIRHRPPRLPRPRPRPHHIPRP | -1.53
69 | RRIRHRPPRLPRPRPRPHHKPRP | -0.556
70 | RRIRHRPPRLPRPRPRPHIKPRP | -0.83
71 | RRIRHRPPRLPRPRPRPHIWPRP | -0.835
72 | RRIRHRPPRLPRPRPRPHKCPRP | -0.11
73 | RRIRHRPPRLPRPRPRPHLKPRP | -0.124
74 | RRIRHRPPRLPRPRPRPHMMPRP | -0.321
75 | RRIRHRPPRLPRPRPRPHPAPRP | 0.21
